In the RNAGym collection of RNA variant scans (doi:10.1021/acssynbio.7b00057):

B1: Pistol ribozyme (parent)
chain: GGGUCGUUGUUCCAUAAUCGCGUGGAUAUGGCACGCAAGUUUCUACCGGGCACCGUAAAUGUCCGACUGGAGCCGUUCGGGCGGCUAUAAACAGACCUCAGGCCCGAAGCGUGGCGGCACCUGCCGCCGGUGGUAAAAAAGAUCGGAAGAGCACACGUCU

Variants of: B1
Test: aptazyme ON/OFF ratio, guanine; higher = stronger switching; co-transcriptional cleavage with and without guanine

First: U7C G9U U10A U11A C13G
Second: U7C G9U U10A U11A C13A
The “aptazyme ON/OFF ratio” value of the first is lower: 1.04 for the first, 1.26 for the second.

Going from U7C G9U U10A U11A C13U to U7C G9C U11A C12G C13U, the “aptazyme ON/OFF ratio” value falls from 1.25 to 1.14.

First: U7C G9C U11A C12G C13A
Second: U7C G9C U11A C12G C13G
The “aptazyme ON/OFF ratio” value of the first is higher: 1.12 for the first, 1.07 for the second.

Compared with U7C G9C U10G U11A C13A, U7C G9C U10G U11A C13G is lower in “aptazyme ON/OFF ratio” value: 1.17 for the first, 1.05 for the second.

Compared with U7C G9C U10G U11A C13U, U7C G9C U10G U11C C13A is lower in “aptazyme ON/OFF ratio” value: 1.11 for the first, 1.1 for the second.

Compared with U7C G9C U10G U11C C13G, U7C G9C U10G U11C C13U is higher in “aptazyme ON/OFF ratio” value: 1.04 for the first, 1.06 for the second.

Going from U7C G9U U10G U11G C12U C13G to U7C G9U U10G U11G C12U C13U, the “aptazyme ON/OFF ratio” value falls from 1.13 to 1.11.

U7C G9U U10G U11G C12U C13A and U7C G9U U11C C12A C13G are the same in “aptazyme ON/OFF ratio” value: 1.07 for the first, 1.07 for the second.

Compared with U7C G9U U11C C12A C13A, U7C G9U U11C C12A C13U is lower in “aptazyme ON/OFF ratio” value: 1.15 for the first, 1.14 for the second.

U7C G9U U10G U11C C12U C13U and U7C G9U U10G U11C C12U C13A are the same in “aptazyme ON/OFF ratio” value: 1.19 for the first, 1.19 for the second.

Compared with U7C G9U U10G U11C C12U C13G, U7C G9U U10A U11C C13U is higher in “aptazyme ON/OFF ratio” value: 1.05 for the first, 1.07 for the second.

Going from U7C G9U U10A U11C C13G to U7C G9U U10A U11C C13A, the “aptazyme ON/OFF ratio” value rises from 1.03 to 1.11.

Going from U7C G9C U11C C13U to U7C G9C U11C C13A, the “aptazyme ON/OFF ratio” value rises from 1 to 1.02.

Compared with U7C G9C U11C C13G, U7C G9C U10G U11C C12A C13G is higher in “aptazyme ON/OFF ratio” value: 1.02 for the first, 1.09 for the second.

First: U7C G9C U10G U11C C12A C13A
Second: U7C G9C U10G U11C C12A C13U
The “aptazyme ON/OFF ratio” value of the first is higher: 1.12 for the first, 1.11 for the second.

Compared with U7C G9U U10G U11G C13A, U7C G9U U10G U11G C13U is higher in “aptazyme ON/OFF ratio” value: 1.09 for the first, 1.1 for the second.

First: U7C G9U U10G U11G C13G
Second: U7C G9U U11C C12G C13G
The “aptazyme ON/OFF ratio” value of the first is higher: 1.1 for the first, 1.06 for the second.

First: U7C G9U U11C C12G C13U
Second: U7C G9U U11C C12G C13A
The “aptazyme ON/OFF ratio” value of the first is higher: 1.07 for the first, 1.05 for the second.

First: U7C G9C U10G U11G C13G
Second: U7C G9C U10G U11G C13A
The “aptazyme ON/OFF ratio” value of the first is higher: 1.11 for the first, 1.1 for the second.

Going from U7C G9C U10G U11G C13U to U7C G9U U11G C12A C13U, the “aptazyme ON/OFF ratio” value rises from 1.09 to 1.14.

Compared with U7C G9U U11G C12A C13G, U7C G9U U11G C12A C13A is higher in “aptazyme ON/OFF ratio” value: 1.1 for the first, 1.19 for the second.

First: U7C G9U U10A U11A C12U C13G
Second: U7C G9U U10A U11A C12U C13U
The “aptazyme ON/OFF ratio” value of the first is lower: 1.14 for the first, 1.25 for the second.

Going from U7C G9U U10A U11A C12U C13A to U7C G9U C12G C13A, the “aptazyme ON/OFF ratio” value falls from 1.27 to 1.11.

Compared with U7C G9U C12G C13G, U7C G9U C12G C13U is higher in “aptazyme ON/OFF ratio” value: 1.1 for the first, 1.15 for the second.

Compared with U7C G9U U10C U11C C12A C13A, U7C G9U U10C U11C C12A C13U is lower in “aptazyme ON/OFF ratio” value: 1.04 for the first, 1.01 for the second.

Going from U7C G9U U10C U11C C12A C13G to U7C G9U U10G U11A C12G C13G, the “aptazyme ON/OFF ratio” value rises from 1.08 to 1.24.

Going from U7C G9U U10G U11A C12G C13A to U7C G9U U10G U11A C12G C13U, the “aptazyme ON/OFF ratio” value rises from 1.11 to 1.12.

Compared with U7C G9C U11G C12G C13A, U7C G9C U11G C12G C13G is higher in “aptazyme ON/OFF ratio” value: 1.08 for the first, 1.09 for the second.

First: U7C G9C U11G C12G C13U
Second: U7C G9U U10G C12G C13U
The “aptazyme ON/OFF ratio” value of the first is lower: 1.07 for the first, 1.11 for the second.

Compared with U7C G9U U10G C12G C13G, U7C G9U U10G C12G C13A is higher in “aptazyme ON/OFF ratio” value: 1.12 for the first, 1.2 for the second.

Going from U7C G9U to U7C G9C U11C C12U, the “aptazyme ON/OFF ratio” value falls from 1.05 to 1.04.

Compared with U7C G9C U11C C12A, U7C G9C U11C C12G is higher in “aptazyme ON/OFF ratio” value: 1.03 for the first, 1.04 for the second.

Compared with U7C G9U U11A C13A, U7C G9U U11A C13U is higher in “aptazyme ON/OFF ratio” value: 1.2 for the first, 1.25 for the second.

First: U7C G9U U11A C13G
Second: U7C G9U C12G
The “aptazyme ON/OFF ratio” value of the first is lower: 1.03 for the first, 1.14 for the second.

Going from U7C G9U C12A to U7C G9U C12U, the “aptazyme ON/OFF ratio” value falls from 1.13 to 1.07.

Going from U7C G9C U11A C12A to U7C G9C U11A C12G, the “aptazyme ON/OFF ratio” value falls from 1.07 to 1.

Compared with U7C G9C U11A C12U, U7C G9U U10A U11G is higher in “aptazyme ON/OFF ratio” value: 1.02 for the first, 1.31 for the second.

Going from U7C G9U U10A U11A to U7C G9U U10A U11C, the “aptazyme ON/OFF ratio” value falls from 1.42 to 1.06.

Compared with U7C G9U U10A U11G C13A, U7C G9U U10A U11G C13U is higher in “aptazyme ON/OFF ratio” value: 1.14 for the first, 1.21 for the second.

Compared with U7C G9U U10A U11G C13G, U7C G9U U11A C12A C13U is higher in “aptazyme ON/OFF ratio” value: 1.02 for the first, 1.29 for the second.

Compared with U7C G9U U11A C12A C13A, U7C G9U U11A C12A C13G is lower in “aptazyme ON/OFF ratio” value: 1.25 for the first, 1.1 for the second.

For U7C G9U U11G C12G C13A, the “aptazyme ON/OFF ratio” value was 1.18.
